How the values were obtained:
Pro-Phe-Arg-MCA = biological target: T1, Pro-Phe-Arg-MCA
T1 chain: PFR

[1] = biological target: T2, Boc-Glu(OBzl)-Ala-Arg-MCA
T2 chain: EAR

[2] = biological target: T3, Gly-Asp-Asp-Asp-Asp-Lys-β-naphthylamide
T3 chain: GDDDDK

[3] = biological target: Human plasma fibronectin, P02751
[4] = biological target: D4K-cleavage site-containing control protein (Novagen)
[5] = biological target: T4, human high-molecular-weight (HMW) kininogen, P01042
T4 chain: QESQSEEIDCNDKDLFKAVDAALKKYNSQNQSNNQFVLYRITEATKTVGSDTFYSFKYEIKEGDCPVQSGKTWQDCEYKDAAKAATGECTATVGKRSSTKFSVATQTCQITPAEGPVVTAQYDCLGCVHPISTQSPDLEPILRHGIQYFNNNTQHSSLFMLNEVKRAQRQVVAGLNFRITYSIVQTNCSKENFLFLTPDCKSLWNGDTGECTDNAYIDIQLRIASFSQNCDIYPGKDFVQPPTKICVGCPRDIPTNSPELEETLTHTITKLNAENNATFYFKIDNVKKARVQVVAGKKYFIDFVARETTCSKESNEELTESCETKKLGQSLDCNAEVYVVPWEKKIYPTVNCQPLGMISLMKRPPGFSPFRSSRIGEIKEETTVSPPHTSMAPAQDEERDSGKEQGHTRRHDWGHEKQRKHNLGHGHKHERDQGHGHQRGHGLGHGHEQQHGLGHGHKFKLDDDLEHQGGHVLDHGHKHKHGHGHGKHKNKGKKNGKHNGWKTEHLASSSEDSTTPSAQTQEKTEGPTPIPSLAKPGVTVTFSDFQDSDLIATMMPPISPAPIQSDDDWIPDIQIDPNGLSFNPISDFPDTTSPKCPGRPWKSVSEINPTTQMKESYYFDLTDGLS

[6] = biological target: T5, recombinant fusion protein of human kallikrein 8 (hK8), O60259
T5 sequence (O60259 whole entry, looked up): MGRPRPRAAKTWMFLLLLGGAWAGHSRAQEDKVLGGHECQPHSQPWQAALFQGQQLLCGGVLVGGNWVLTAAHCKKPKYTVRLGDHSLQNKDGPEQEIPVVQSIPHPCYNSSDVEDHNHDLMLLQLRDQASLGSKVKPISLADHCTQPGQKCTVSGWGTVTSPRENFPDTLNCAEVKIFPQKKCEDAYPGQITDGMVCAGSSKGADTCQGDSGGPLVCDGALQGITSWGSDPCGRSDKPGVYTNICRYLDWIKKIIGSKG

Z-Phe-Arg-MCA = biological target: T6, Z-Phe-Arg-MCA
T6 chain: FR

human fibrinogen, P02671 = biological target: T7, human fibrinogen, P02671
T7 chain 1: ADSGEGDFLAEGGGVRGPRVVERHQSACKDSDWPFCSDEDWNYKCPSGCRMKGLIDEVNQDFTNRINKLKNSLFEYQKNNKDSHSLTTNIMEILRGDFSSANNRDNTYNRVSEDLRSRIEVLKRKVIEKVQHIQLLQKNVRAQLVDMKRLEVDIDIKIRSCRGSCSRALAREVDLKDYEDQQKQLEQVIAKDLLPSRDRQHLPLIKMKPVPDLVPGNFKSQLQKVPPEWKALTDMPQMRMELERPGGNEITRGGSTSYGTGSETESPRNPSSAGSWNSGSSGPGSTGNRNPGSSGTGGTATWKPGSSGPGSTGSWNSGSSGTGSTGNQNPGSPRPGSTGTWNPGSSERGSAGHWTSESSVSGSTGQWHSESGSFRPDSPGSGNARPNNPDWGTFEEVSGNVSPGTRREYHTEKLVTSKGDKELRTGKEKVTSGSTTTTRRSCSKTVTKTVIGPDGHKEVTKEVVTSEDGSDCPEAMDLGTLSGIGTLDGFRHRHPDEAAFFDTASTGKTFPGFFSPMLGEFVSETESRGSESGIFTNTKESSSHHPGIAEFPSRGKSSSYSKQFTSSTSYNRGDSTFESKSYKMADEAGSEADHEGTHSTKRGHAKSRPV
T7 chain 2: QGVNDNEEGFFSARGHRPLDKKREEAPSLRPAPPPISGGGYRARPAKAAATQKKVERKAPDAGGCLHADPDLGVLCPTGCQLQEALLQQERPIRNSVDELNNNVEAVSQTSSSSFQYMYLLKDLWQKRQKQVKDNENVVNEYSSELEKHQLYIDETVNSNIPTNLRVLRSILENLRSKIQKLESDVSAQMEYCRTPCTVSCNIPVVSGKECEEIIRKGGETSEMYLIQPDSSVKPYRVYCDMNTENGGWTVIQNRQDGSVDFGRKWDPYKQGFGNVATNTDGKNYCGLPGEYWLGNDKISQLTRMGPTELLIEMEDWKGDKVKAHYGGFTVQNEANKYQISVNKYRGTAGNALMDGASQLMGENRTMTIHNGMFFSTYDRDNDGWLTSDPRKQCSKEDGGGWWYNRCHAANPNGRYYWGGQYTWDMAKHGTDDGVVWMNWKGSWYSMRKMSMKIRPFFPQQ
T7 chain 3: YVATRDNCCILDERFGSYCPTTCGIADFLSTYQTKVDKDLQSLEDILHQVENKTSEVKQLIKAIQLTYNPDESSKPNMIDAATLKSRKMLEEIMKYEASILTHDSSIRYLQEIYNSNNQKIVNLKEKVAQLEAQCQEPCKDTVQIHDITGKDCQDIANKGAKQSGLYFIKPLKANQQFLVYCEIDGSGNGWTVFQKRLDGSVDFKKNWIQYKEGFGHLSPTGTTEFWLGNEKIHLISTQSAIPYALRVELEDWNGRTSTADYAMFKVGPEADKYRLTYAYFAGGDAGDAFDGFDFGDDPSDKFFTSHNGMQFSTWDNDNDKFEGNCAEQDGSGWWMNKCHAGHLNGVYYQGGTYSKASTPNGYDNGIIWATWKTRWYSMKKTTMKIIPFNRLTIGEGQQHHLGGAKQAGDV

[7] = biological target: recombinant fusion protein of Medaka gelatinase A
[8] = biological target: human single-chain tPA fusion protein with N-terminal His-tag/EP-cleavage site, P00750
human single-chain tPA fusion protein with N-terminal His-tag/EP-cleavage site, P00750, sequence (P00750 whole entry, looked up, the tested form may be a part): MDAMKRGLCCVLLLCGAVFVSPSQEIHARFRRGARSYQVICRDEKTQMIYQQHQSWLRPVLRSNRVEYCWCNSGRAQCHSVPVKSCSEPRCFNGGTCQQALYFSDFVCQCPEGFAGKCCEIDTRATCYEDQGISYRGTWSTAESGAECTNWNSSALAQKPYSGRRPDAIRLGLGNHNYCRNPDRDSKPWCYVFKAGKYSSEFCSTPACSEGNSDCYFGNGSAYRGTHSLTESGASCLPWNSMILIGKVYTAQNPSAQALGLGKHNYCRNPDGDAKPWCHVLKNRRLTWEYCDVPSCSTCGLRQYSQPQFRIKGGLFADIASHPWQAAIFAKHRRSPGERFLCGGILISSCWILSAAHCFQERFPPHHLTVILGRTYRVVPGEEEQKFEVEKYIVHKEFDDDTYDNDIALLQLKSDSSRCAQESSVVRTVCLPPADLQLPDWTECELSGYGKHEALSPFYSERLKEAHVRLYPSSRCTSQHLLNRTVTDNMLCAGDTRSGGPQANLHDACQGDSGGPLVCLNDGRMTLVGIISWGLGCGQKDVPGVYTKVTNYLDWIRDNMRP

Human plasma fibronectin, P02751, sequence (P02751 other isoform, or with tags, fused parts or gaps): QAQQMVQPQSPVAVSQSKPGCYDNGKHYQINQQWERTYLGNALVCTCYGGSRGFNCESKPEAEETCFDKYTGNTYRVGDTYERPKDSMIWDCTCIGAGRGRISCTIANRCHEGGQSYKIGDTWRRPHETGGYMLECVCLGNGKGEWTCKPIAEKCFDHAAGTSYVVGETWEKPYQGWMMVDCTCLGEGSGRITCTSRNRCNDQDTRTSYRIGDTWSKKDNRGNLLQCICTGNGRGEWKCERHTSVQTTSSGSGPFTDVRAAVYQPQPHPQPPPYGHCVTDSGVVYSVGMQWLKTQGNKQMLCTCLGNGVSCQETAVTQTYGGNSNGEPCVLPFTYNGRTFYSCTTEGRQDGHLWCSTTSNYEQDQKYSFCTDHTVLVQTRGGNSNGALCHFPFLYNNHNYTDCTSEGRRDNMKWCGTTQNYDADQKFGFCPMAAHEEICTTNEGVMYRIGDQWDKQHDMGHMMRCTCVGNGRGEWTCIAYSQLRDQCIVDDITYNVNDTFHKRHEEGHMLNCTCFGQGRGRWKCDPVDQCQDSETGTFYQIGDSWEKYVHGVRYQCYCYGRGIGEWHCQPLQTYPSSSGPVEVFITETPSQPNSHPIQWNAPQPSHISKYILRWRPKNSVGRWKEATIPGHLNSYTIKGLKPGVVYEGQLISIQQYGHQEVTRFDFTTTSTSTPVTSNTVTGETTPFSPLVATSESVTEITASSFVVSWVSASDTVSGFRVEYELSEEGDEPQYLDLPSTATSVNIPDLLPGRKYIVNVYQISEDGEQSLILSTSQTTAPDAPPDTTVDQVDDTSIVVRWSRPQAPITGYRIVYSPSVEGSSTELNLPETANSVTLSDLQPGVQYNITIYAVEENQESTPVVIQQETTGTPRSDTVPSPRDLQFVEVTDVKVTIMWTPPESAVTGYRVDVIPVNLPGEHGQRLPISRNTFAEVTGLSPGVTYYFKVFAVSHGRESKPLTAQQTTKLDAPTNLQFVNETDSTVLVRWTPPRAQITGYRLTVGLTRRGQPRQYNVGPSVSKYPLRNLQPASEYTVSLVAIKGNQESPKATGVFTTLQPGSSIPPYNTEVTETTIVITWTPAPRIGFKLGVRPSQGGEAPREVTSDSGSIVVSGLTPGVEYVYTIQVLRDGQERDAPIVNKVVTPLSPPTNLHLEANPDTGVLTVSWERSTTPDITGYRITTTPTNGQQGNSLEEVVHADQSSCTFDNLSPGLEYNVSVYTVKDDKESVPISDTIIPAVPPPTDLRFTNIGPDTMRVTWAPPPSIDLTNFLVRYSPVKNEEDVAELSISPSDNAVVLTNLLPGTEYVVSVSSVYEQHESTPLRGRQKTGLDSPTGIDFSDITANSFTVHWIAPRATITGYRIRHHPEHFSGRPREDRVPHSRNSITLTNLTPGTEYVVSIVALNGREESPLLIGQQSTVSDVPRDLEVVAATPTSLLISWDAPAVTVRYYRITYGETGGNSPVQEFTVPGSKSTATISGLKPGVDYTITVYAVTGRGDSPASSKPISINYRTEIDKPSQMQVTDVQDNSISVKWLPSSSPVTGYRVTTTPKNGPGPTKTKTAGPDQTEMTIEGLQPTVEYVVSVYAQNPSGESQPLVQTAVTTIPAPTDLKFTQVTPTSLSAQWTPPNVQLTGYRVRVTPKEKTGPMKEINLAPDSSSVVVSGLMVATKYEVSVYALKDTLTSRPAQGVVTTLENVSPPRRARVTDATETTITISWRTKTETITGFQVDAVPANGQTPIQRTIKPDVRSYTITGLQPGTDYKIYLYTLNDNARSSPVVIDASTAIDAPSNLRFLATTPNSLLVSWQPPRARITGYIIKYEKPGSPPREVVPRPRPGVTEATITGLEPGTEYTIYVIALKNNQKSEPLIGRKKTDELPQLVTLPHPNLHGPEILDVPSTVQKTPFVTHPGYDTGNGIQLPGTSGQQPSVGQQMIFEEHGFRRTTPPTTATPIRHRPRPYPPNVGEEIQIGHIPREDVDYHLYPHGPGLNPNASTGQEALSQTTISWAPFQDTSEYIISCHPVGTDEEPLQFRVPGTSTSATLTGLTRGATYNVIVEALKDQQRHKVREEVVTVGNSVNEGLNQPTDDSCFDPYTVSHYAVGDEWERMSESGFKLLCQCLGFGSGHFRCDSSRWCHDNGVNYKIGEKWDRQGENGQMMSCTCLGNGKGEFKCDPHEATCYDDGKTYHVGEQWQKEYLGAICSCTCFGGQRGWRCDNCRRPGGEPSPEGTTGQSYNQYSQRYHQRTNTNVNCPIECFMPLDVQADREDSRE

B1: porcine EP serine protease domain (Ile800 to His1034) (protein)
chain: IVGGNDSREGAWPWVVALYYNGQLLCGASLVSRDWLVSAAHCVYGRNLEPSKWKAILGLHMTSNLTSPQIVTRLIDEIVINPHYNRRRKDSDIAMMHLEFKVNYTDYIQPICLPEENQVFPPGRICSIAGWGKVIYQGSPADILQEADVPLLSNEKCQQQMPEYNITENMMCAGYEEGGIDSCQGDSGGPLMCLENNRWLLAGVTSFGYQCALPNRPGVYARVPKFTEWIQSFLH
Km (Pro-Phe-Arg-MCA): 3900 µM | kcat (Pro-Phe-Arg-MCA): 5 s⁻¹ | kcat/Km (mM^-1 · min^-1) (Pro-Phe-Arg-MCA): 77 | Km [1]: 300 µM | kcat [1]: 1.83 s⁻¹ | kcat/Km (mM^-1 · min^-1) [1]: 370 | Km [2]: 400 µM | kcat [2]: 8.83 s⁻¹ | kcat/Km (mM^-1 · min^-1) [2]: 1300 | proteolytic activity (SDS-PAGE) [3]: these substrates were detectably hydrolyzed by the mammalian proteases | cleavage of the fusion protein (SDS-PAGE) [4]: the mammalian enzymes not only produced the two expected polypeptides but also further degraded the products | proteolytic activity (SDS-PAGE) (mouse laminin): these substrates were detectably hydrolyzed by the mammalian proteases | nonspecific proteolytic activity (SDS-PAGE) [5]: both of which were degraded noticeably by mammalian EP proteases | cleavage of the fusion protein (SDS-PAGE) [6]: the porcine protease extensively degraded the substrate | proteolytic activity (gelatin zymography) (gelatin): these substrates were detectably hydrolyzed by the mammalian proteases | Km (Z-Phe-Arg-MCA): 200 µM | kcat (Z-Phe-Arg-MCA): 0.917 s⁻¹ | kcat/Km (mM^-1 · min^-1) (Z-Phe-Arg-MCA): 280 | nonspecific proteolytic activity (SDS-PAGE) (human fibrinogen, P02671): both of which were degraded noticeably by mammalian EP proteases | cleavage of the fusion protein (SDS-PAGE) [7]: the fusion protein was extensively digested by mammalian EP serine proteases | cleavage of the fusion protein (SDS-PAGE/Western blot) [8]: but not with mammalian ones, showed two polypeptides (53- and 55-kDa)

Reference: patent publication US20080213836
